T1: wildtype feline IL-31 protein (Feline_IL31_wildtype) (feline)
T1 construct: Full length feline IL-31 with C-terminal His tag, secreted from ExpiCHO cells; also called fIL-31
T1 chain: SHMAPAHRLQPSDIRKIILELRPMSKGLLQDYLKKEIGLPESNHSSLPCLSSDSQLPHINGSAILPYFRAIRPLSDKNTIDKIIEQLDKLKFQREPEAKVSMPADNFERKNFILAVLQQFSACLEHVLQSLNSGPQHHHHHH

T2: canine IL-31 protein (Canine_IL31) (canine)
T2 chain: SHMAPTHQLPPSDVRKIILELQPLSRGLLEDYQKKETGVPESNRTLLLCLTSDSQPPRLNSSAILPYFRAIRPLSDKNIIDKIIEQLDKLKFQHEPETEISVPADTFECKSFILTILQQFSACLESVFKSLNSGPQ

B1: Feline_11E12 1.1_K46Q (antibody, V domains shown)
VH: QVLLVQSGAEVKKPGASVKIFCKASGYSFTYYDINWLRQAPEQGLEWMGWIFPGDGGTKYNETFKGRLTLTADTSTNTVYMELSSLRSADTAMYYCARGGTSVIRDAMDYWGQGALVTVSS
VL: EIQMTQSPSSLSASPGDRVTITCRASESVDNYGISFMHWYQQKPGQVPKLLIYRASNLESGVPSRFSGSGSGTDFTLTISSLEPEDAATYYCQQSNKDPLTFGQGTKLEIK
notes: felinized 11E12 with the single VL substitution K46Q; copies: 2 + 2
B2: A30 (antibody, V domains shown)
VH: QVLLVQSGAEVRTPGASVKIFCKASGYSFASYTIHWLRQAPAQGLEWMGNINPTSGYTENNQRFKDRLTLTADTSTNTAYMELSSLRSADTAMYYCARWGFKYDGEWSFDVWGAGTTVTVSS
VL: EIQMTQSPSSLSASPGDRVTITCRASQGISIWLSWYQQKPGNIPKVLINKASNLHIGVPSRFSGSGSGTDFTLTISSLEPEDAATYYCLQSQTYPLTFGGGTKLEIK
B3: Feline 15H05 VH3 mouse VL (antibody, V domains shown)
VH: QVLLVQSGAEVRKPGASVKIFCKASGYSFTSYTIHWLRQAPEQGLEWMGNINPTSGYTENNQRFKDRLTLTADTSTNTAYMELSSLRSADTAMYYCARWGFKYDGEWSFDVWGAGTTVTVSS
VL: DIQMNQSPSSLSASLGDTITVTCRASQGISIWLSWYQQKPGNIPKVLINKASNLHIGVPPRFSGSGSGTHFTLTITSLQPEDIATYYCLQSQTYPLTFGGGTKLEIN
notes: Heterochimeric antibody; also called felinized 15H05 VH3 with mouse 15H05 VL (heterochimera)
B4: Feline 15H05 1.1 FW1_3 (antibody, V domains shown)
VH: QVLLVQSGAEVRTPGASVKIFCKASGYSFTSYTIHWLRQAPAQGLEWMGNINPTSGYTENNQRFKDRLTLTADTSTNTAYMELSSLRSADTAMYYCARWGFKYDGEWSFDVWGAGTTVTVSS
VL: DIQMNQSPSSLSASLGDTITVTCRASQGISIWLSWYQQKPGKVPKLLIYKASNLHIGVPPRFSGSGSGTHFTLTITSLQPEDIATYYCLQSQTYPLTFGGGTKLEIK
notes: Printed as 'Feline 15H05 1.1 FW13'
B5: Feline 15H05 1.2 (antibody, V domains shown)
VH: QVLLVQSGAEVRTPGASVKIFCKASGYSFTSYTIHWLRQAPAQGLEWMGNINPTSGYTENNQRFKDRLTLTADTSTNTAYMELSSLRSADTAMYYCARWGFKYDGEWSFDVWGAGTTVTVSS
VL: EITMTQSPGSLAGSPGQQVTMNCRASQGISIWLSWYQQKPGQHPKLLIYKASNLHIGVPDRFSGSGSGTDFTLTISNLQAEDVASYYCLQSQTYPLTFGGGTKLEIK
notes: Feline heavy and kappa constant regions
B6: Feline 15H05 1.3 (antibody, V domains shown)
VH: QVLLVQSGAEVRTPGASVKIFCKASGYSFTSYTIHWLRQAPAQGLEWMGNINPTSGYTENNQRFKDRLTLTADTSTNTAYMELSSLRSADTAMYYCARWGFKYDGEWSFDVWGAGTTVTVSS
VL: EVVLTQSSAFLSRTLKEKATITCRASQGISIWLSWYQQKPNQAPKLLVKKASNLHIGAPSRFSGSGSGTDFTLTISSPEPEDAATYYCLQSQTYPLTFGGGTKLGDQ
notes: as for B5
B7: A39 (antibody, V domains shown)
VH: QVLLVQSGAEVRTPGASVKIFCKASGYSFTSYTIHWLRQAPAQGLEWMGNIAPTSGYTENNQRFKDRLTLTADTSTNTAYMELSSLRSADTAMYYCARWGFKYDGEWSFDVWGAGTTVTVSS
VL: EIQMTQSPSSLSASPGDRVTITCRASQGISIWLSWYQQKPGNIPKVLINKASNLHIGVPSRFSGSGSGTDFTLTISSLEPEDAATYYCLQSQTYPLTFGGGTKLEIK
B8: A34 (antibody, V domains shown)
VH: QVLLVQSGAEVRTPGASVKIFCKASGYSFTSYAIHWLRQAPAQGLEWMGNINPTSGYTENNQRFKDRLTLTADTSTNTAYMELSSLRSADTAMYYCARWGFKYDGEWSFDVWGAGTTVTVSS
VL: EIQMTQSPSSLSASPGDRVTITCRASQGISIWLSWYQQKPGNIPKVLINKASNLHIGVPSRFSGSGSGTDFTLTISSLEPEDAATYYCLQSQTYPLTFGGGTKLEIK
B9: A35 (antibody, V domains shown)
VH: QVLLVQSGAEVRTPGASVKIFCKASGYSFTSYTAHWLRQAPAQGLEWMGNINPTSGYTENNQRFKDRLTLTADTSTNTAYMELSSLRSADTAMYYCARWGFKYDGEWSFDVWGAGTTVTVSS
VL: EIQMTQSPSSLSASPGDRVTITCRASQGISIWLSWYQQKPGNIPKVLINKASNLHIGVPSRFSGSGSGTDFTLTISSLEPEDAATYYCLQSQTYPLTFGGGTKLEIK
B10: Feline 15H05 3.2 (antibody, V domains shown)
VH: QVLLVQSGAEVRKPGASVKIFCKASGYSFTSYTIHWLRQAPEQGLEWMGNINPTSGYTENNQRFKDRLTLTADTSTNTAYMELSSLRSADTAMYYCARWGFKYDGEWSFDVWGAGTTVTVSS
VL: EITMTQSPGSLAGSPGQQVTMNCRASQGISIWLSWYQQKPGQHPKLLIYKASNLHIGVPDRFSGSGSGTDFTLTISNLQAEDVASYYCLQSQTYPLTFGGGTKLEIK
notes: as for B5
B11: A37 (antibody, V domains shown)
VH: QVLLVQSGAEVRTPGASVKIFCKASGYSFTSYTIHWLRQAPAQGLEWMGAINPTSGYTENNQRFKDRLTLTADTSTNTAYMELSSLRSADTAMYYCARWGFKYDGEWSFDVWGAGTTVTVSS
VL: EIQMTQSPSSLSASPGDRVTITCRASQGISIWLSWYQQKPGNIPKVLINKASNLHIGVPSRFSGSGSGTDFTLTISSLEPEDAATYYCLQSQTYPLTFGGGTKLEIK
B12: Feline 15H05 2.2 (antibody, V domains shown)
VH: QVLLVQSGAEVRTPGASVKIFCKASGYGFTSYTIHWVRQSPAQGLEWMGNINPTSGYTENNQRFKDRLTLTADTSTNTAYMELSSLRSADTAMYYCARWGFKYDGEWSFDVWGAGTTVTVSS
VL: EITMTQSPGSLAGSPGQQVTMNCRASQGISIWLSWYQQKPGQHPKLLIYKASNLHIGVPDRFSGSGSGTDFTLTISNLQAEDVASYYCLQSQTYPLTFGGGTKLEIK
notes: as for B5
B13: A32 (antibody, V domains shown)
VH: QVLLVQSGAEVRTPGASVKIFCKASGYSFTAYTIHWLRQAPAQGLEWMGNINPTSGYTENNQRFKDRLTLTADTSTNTAYMELSSLRSADTAMYYCARWGFKYDGEWSFDVWGAGTTVTVSS
VL: EIQMTQSPSSLSASPGDRVTITCRASQGISIWLSWYQQKPGNIPKVLINKASNLHIGVPSRFSGSGSGTDFTLTISSLEPEDAATYYCLQSQTYPLTFGGGTKLEIK
B14: A36 (antibody, V domains shown)
VH: QVLLVQSGAEVRTPGASVKIFCKASGYSFTSYTIAWLRQAPAQGLEWMGNINPTSGYTENNQRFKDRLTLTADTSTNTAYMELSSLRSADTAMYYCARWGFKYDGEWSFDVWGAGTTVTVSS
VL: EIQMTQSPSSLSASPGDRVTITCRASQGISIWLSWYQQKPGNIPKVLINKASNLHIGVPSRFSGSGSGTDFTLTISSLEPEDAATYYCLQSQTYPLTFGGGTKLEIK
B15: A38 (antibody, V domains shown)
VH: QVLLVQSGAEVRTPGASVKIFCKASGYSFTSYTIHWLRQAPAQGLEWMGNANPTSGYTENNQRFKDRLTLTADTSTNTAYMELSSLRSADTAMYYCARWGFKYDGEWSFDVWGAGTTVTVSS
VL: EIQMTQSPSSLSASPGDRVTITCRASQGISIWLSWYQQKPGNIPKVLINKASNLHIGVPSRFSGSGSGTDFTLTISSLEPEDAATYYCLQSQTYPLTFGGGTKLEIK
B16: A40 (antibody, V domains shown)
VH: QVLLVQSGAEVRTPGASVKIFCKASGYSFTSYTIHWLRQAPAQGLEWMGNINATSGYTENNQRFKDRLTLTADTSTNTAYMELSSLRSADTAMYYCARWGFKYDGEWSFDVWGAGTTVTVSS
VL: EIQMTQSPSSLSASPGDRVTITCRASQGISIWLSWYQQKPGNIPKVLINKASNLHIGVPSRFSGSGSGTDFTLTISSLEPEDAATYYCLQSQTYPLTFGGGTKLEIK

Key:
[1] = biological target: T1, wildtype feline IL-31 protein …; assay: SPR (Biacore), IL-31 on chip, 1:1 fit
Method: The affinity with which candidate mAbs bind canine and feline IL-31 was determined using surface plasmon resonance (SPR) on a Biacore system (Biocore Life Sciences (GE Healthcare), Uppsala, Sweden). To avoid affinity differences associated with differential surface preparation that can occur when immobilizing antibodies to surfaces; a strategy was employed where IL-31 was directly conjugated to the surface. Immobilization was obtained by amine coupling 5 μg/mL IL-31 using N-hydroxysuccinimide (NHS)/1-Ethyl-3-(3-dimethylaminopropyl) carbodiimide (EDC) chemistry. Chips were quenched with ethanolamine and the affinity with which all candidate mAbs bound to the immobilized IL-31 was evaluated. All curves were fit to a 1:1 model. […] Results for affinity measurements are described herein.

[2] = biological target: T2, canine IL-31 protein (Canine_IL31); assay: SPR (Biacore), IL-31 on chip, 1:1 fit
[3] = biological target: T1, wildtype feline IL-31 protein …; assay: Biacore, feline IL-31 chip, mAb 100 nM, share of points within parent mean +/-3 SD; design: key: % of mutant data points within parent mAb mean ±3 SD
Source text: The mean response unit of four replicates of the parent mAb+/−3 standard deviations was used to generate parameters to define a threshold of response units comprising both the on- and off-rates antibody binding (FIG. 22). The percentage of data points for each mutant fell within this threshold was then used to define a “% similarity score” (FIG. 23).

[4] = biological target: T1, wildtype feline IL-31 protein …; assay: cell-based or functional assay

Binder | Kd [1] | koff [1] | kon [1] | koff [2] | kon [2] | Binding Similarity score [3] | % Inhibition Relative to Parent (pSTAT, FCWF-4 cells) [4]
B1 | 12.6 nM | 0.000145 s⁻¹ | 11500 M⁻¹ s⁻¹ | 8.85e-05 s⁻¹ | 46400 M⁻¹ s⁻¹ | – | –
B2 | – | – | – | – | – | 79 | 28.4%
B3 | 0.177 nM | 1.57e-05 s⁻¹ | 88900 M⁻¹ s⁻¹ | 2.64e-07 s⁻¹ | 100000 M⁻¹ s⁻¹ | – | –
B4 | 0.0674 nM | 3.02e-05 s⁻¹ | 448000 M⁻¹ s⁻¹ | 2.88e-08 s⁻¹ | 6590 M⁻¹ s⁻¹ | – | –
B5 | 104 nM | 0.00147 s⁻¹ | 14100 M⁻¹ s⁻¹ | 0.000115 s⁻¹ | 33000 M⁻¹ s⁻¹ | – | –
B6 | 86.4 nM | 0.00328 s⁻¹ | 38000 M⁻¹ s⁻¹ | 0.00019 s⁻¹ | 29700 M⁻¹ s⁻¹ | – | –
B7 | – | – | – | – | – | 100 | 25.1%
B8 | – | – | – | – | – | 3.37 | 0%
B9 | – | – | – | – | – | 97.5 | 92.5%
B10 | 12.6 nM | 0.00166 s⁻¹ | 132000 M⁻¹ s⁻¹ | 6.04e-06 s⁻¹ | 29700 M⁻¹ s⁻¹ | – | –
B11 | – | – | – | – | – | 46.1 | 52.1%
B12 | 2.15 nM | 0.00195 s⁻¹ | 905000 M⁻¹ s⁻¹ | 1.09e-05 s⁻¹ | 27700 M⁻¹ s⁻¹ | – | –
B13 | – | – | – | – | – | 39.2 | 40.3%
B14 | – | – | – | – | – | 10.4 | 25.2%
B15 | – | – | – | – | – | 55.1 | 42.2%
B16 | – | – | – | – | – | 2.7 | 5.7%
